Assay results as given in US20140223606, “COMPOSITIONS AND METHODS COMPRISING SEQUENCES HAVING MEGANUCLEASE ACTIVITY” (PIONEER HI BRED INTERNATIONAL INC, published 2014).
Numbering of substitutions follows the chain as printed.

T1: ZM6.22v2(I7) (artificial)
T1 chain: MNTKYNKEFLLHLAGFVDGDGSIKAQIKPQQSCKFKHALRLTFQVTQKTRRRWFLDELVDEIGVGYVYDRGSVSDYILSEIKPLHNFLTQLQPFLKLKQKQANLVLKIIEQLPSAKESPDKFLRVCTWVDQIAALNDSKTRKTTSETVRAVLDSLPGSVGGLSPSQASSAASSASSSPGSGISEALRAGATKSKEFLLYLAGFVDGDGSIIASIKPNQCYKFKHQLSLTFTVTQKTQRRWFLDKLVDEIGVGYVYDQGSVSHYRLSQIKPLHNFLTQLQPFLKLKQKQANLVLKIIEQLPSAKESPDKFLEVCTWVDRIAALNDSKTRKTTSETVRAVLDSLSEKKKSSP

T2: ZM6.22v2(I4) (artificial)
T2 chain: T1 chain with H12Y, R50Q, V292A, V316A

T3: ZM6.22v2(I9) (artificial)
T3 chain: T1 chain with H12Y, R50Q, R124E, V316A

T4: ZM6.22v2 (artificial)
T4 chain: T1 chain with H12Y, R50Q, E57K, R124E, R318Q

T5: MHP14(13) (artificial)
T5 chain: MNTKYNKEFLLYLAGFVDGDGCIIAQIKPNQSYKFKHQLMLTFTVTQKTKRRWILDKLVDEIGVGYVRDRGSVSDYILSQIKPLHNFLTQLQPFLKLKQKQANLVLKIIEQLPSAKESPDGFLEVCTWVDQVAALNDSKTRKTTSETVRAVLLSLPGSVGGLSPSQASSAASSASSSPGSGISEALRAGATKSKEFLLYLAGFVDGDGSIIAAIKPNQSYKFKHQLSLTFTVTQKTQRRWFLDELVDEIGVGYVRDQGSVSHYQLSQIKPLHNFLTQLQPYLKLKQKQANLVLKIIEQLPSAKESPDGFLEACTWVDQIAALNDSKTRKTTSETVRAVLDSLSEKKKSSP

B1: ZM6.22v2 recognition site (dsDNA)
DNA 1: ATTGCTCTCTCACATACTTTTA
DNA 2: TAAAAGTATGTGAGAGAGCAAT
B2: MHP14 recognition site (dsDNA)
DNA 1: CAAACAGATTCACGTCAGATTT
DNA 2: AAATCTGACGTGAATCTGTTTG

Key:
Conditions in all cases: tags: NLS, 6xHis
[1] = target: T1, ZM6.22v2(I7); assay: cell_activity; yeast 37 C; 30 C: 0
Protocol: (§1) A 3 mL culture of selective media (MP Biomedical) was inoculated with a single colony of the yeast screening strain and grown at 30° C. overnight. On the following day, a 50 ml YPD culture (MP Biomedical) was started with 2 ml of the overnight culture and grown at 30° C. overnight. On the following day, the cells were harvested by centrifugation at 4000 rpm. The cells were resuspended in 100 ml ice cold water and centrifuged again. The cells were then washed in 1.2 M sorbitol, followed by treatment with 2 ml of 10 mM Tris pH 8.0, 1 mM EDTA, 100 mM Lithium acetate, 10 mM DTT, 0.6M sorbitol for 30 minutes at 30° C. with shaking. The cells were recovered by centrifugation, washed in 40 ml 1.2M sorbitol and finally resuspended in 250 microliters of 1.2M sorbitol. 50 microliter aliquots were transferred to test tubes on ice. Up to 5 microliters of DNA (100-500 nanograms) were added. The suspension was transferred to a 0.2 cm electroporation cuvette, on ice. Electroporation was performed with a pulse charge at 1.5 kV, 200 ohms, 25 microF (pulse time of 5 milliseconds). 1 mL YPD media (MP Biomedical) was added and the cells were allowed to recover at 30° C. for 1-2 hr. The cells were centrifuged, resuspended in 100 uL 1M sorbitol and plated on selective media lacking leucine and containing 2% galactose. The resulting yeast colonies were incubated at various temperatures ranging from 22 to 37 degrees Celsius for 7-10 days. I-CreI and meganucleases derived from it have maximal activity at or above 37 degrees Celsius. Screening was performed at a range of temperatures from 22 to 37 degrees in order to observe increases in activity at lower temperatures which are relevant to certain biological systems (eg. plant cells, plant cell cultures, etc). At that time the red/white sectoring phenotype, indicative of meganuclease activity was observed. Colonies with increased white sectoring over the parental meganuclease (indicating colonies expressing a meganuclease with increased meganuclease activity), also referred to as “hits” and sometimes completely white, were isolated for further analysis.
(§2) A total of 13 ZM6.22v2 variants with increased activity were confirmed in the yeast system (as described in Example 6). Increased activity was observed across a range of temperatures: 28 degrees Celsius, 30 degrees Celsius and 37 degrees Celsius, as shown in Table 16.

[2] = target: T2, ZM6.22v2(I4); assay: cell_activity; yeast 37 C; 30 C: 0
Protocol: as §1, §2

[3] = target: T3, ZM6.22v2(I9); assay: cell_activity; yeast 37 C; 30 C: 0
Protocol: as §1, §2

[4] = target: T4, ZM6.22v2; assay: cell_activity; yeast 37 C; 30 C: 0
Protocol: as §1, §2

[5] = target: T5, MHP14(13); assay: cell_activity; yeast 37 C; 28 C: 1
Protocol: A 3 mL culture of selective media (MP Biomedical) was inoculated with a single colony of the yeast screening strain and grown at 30° C. overnight. On the following day, a 50 ml YPD culture (MP Biomedical) was started with 2 ml of the overnight culture and grown at 30° C. overnight. On the following day, the cells were harvested by centrifugation at 4000 rpm. The cells were resuspended in 100 ml ice cold water and centrifuged again. The cells were then washed in 1.2 M sorbitol, followed by treatment with 2 ml of 10 mM Tris pH 8.0, 1 mM EDTA, 100 mM Lithium acetate, 10 mM DTT, 0.6M sorbitol for 30 minutes at 30° C. with shaking. The cells were recovered by centrifugation, washed in 40 ml 1.2M sorbitol and finally resuspended in 250 microliters of 1.2M sorbitol. 50 microliter aliquots were transferred to test tubes on ice. Up to 5 microliters of DNA (100-500 nanograms) were added. The suspension was transferred to a 0.2 cm electroporation cuvette, on ice. Electroporation was performed with a pulse charge at 1.5 kV, 200 ohms, 25 microF (pulse time of 5 milliseconds). 1 mL YPD media (MP Biomedical) was added and the cells were allowed to recover at 30° C. for 1-2 hr. The cells were centrifuged, resuspended in 100 uL 1M sorbitol and plated on selective media lacking leucine and containing 2% galactose. The resulting yeast colonies were incubated at various temperatures ranging from 22 to 37 degrees Celsius for 7-10 days. I-CreI and meganucleases derived from it have maximal activity at or above 37 degrees Celsius. Screening was performed at a range of temperatures from 22 to 37 degrees in order to observe increases in activity at lower temperatures which are relevant to certain biological systems (eg. plant cells, plant cell cultures, etc). At that time the red/white sectoring phenotype, indicative of meganuclease activity was observed. Colonies with increased white sectoring over the parental meganuclease (indicating colonies expressing a meganuclease with increased meganuclease activity), also referred to as “hits” and sometimes completely white, were isolated for further analysis. […]

Row | Binder | activity [1] | activity [2] | activity [3] | activity [4] | activity [5]
1 | B1 | 2 score 0-4 | 3 score 0-4 | 2 score 0-4 | 1 score 0-4 | –
2 | B2 | – | – | – | – | 3.5 score 0-4
